Assays:
[1] = molecular target: antigen of the 'Antigen binding ELISA' (not given); assay: Antigen binding ELISA of stressed sample; F18; initial (repeated from Table 41A)
[2] = molecular target: antigen of the 'Antigen binding ELISA' (not given); assay: Antigen binding ELISA of stability sample; F18; 25 °C 1 month
[3] = molecular target: antigen of the 'Antigen binding ELISA' (not given); assay: Antigen binding ELISA of stability sample; F15; 25 °C 2 months
[4] = molecular target: antigen of the 'Antigen binding ELISA' (not given); assay: Antigen binding ELISA of stressed sample; F15; initial (repeated from Table 37)
[5] = molecular target: antigen of the 'Antigen binding ELISA' (not given); assay: Antigen binding ELISA of stability sample; F15 without methionine; initial
[6] = molecular target: antigen of the 'Antigen binding ELISA' (not given); assay: Antigen binding ELISA of stability sample; F15 without methionine; initial (same value as Table 37)
[7] = molecular target: antigen of the 'Antigen binding ELISA' (not given); assay: Antigen binding ELISA of stability sample; F0; 25 °C 2 months
[8] = molecular target: antigen of the 'Antigen binding ELISA' (not given); assay: Antigen binding ELISA of stability sample; F18 with methionine; initial (repeated from Table 41A)
[9] = molecular target: antigen of the 'Antigen binding ELISA' (not given); assay: Antigen binding ELISA of stability sample; F18 with methionine; 5 °C 2 months
[10] = molecular target: antigen of the 'Antigen binding ELISA' (not given); assay: Antigen binding ELISA of stability sample; F0; initial (repeated from Table 37)
[11] = molecular target: antigen of the 'Antigen binding ELISA' (not given); assay: Antigen binding ELISA of stressed sample; F18; 25 °C dark 7 days
[12] = molecular target: antigen of the 'Antigen binding ELISA' (not given); assay: Antigen binding ELISA of stressed sample; F15; 25 °C 1000 lx 7 days
[13] = molecular target: antigen of the 'Antigen binding ELISA' (not given); assay: Antigen binding ELISA of stressed sample; F15; 25 °C dark 7 days
[14] = molecular target: antigen of the 'Antigen binding ELISA' (not given); assay: Antigen binding ELISA of stability sample; F0; 5 °C 2 months (same value as Table 37)
[15] = molecular target: antigen of the 'Antigen binding ELISA' (not given); assay: Antigen binding ELISA of stability sample; F18 with 10 mM methionine; initial
[16] = molecular target: antigen of the 'Antigen binding ELISA' (not given); assay: Antigen binding ELISA of stability sample; F15; 25 °C 1 month
[17] = molecular target: antigen of the 'Antigen binding ELISA' (not given); assay: Antigen binding ELISA of stressed sample; F15; 3 freeze-thaw cycles
[18] = molecular target: antigen of the 'Antigen binding ELISA' (not given); assay: Antigen binding ELISA of stressed sample; F18; 3 freeze-thaw cycles
[19] = molecular target: antigen of the 'Antigen binding ELISA' (not given); assay: Antigen binding ELISA of stability sample; F15 without methionine; 5 °C 2 months (same value as Table 37)
[20] = molecular target: antigen of the 'Antigen binding ELISA' (not given); assay: Antigen binding ELISA of stability sample; F0; 25 °C 1 month
[21] = molecular target: antigen of the 'Antigen binding ELISA' (not given); assay: Antigen binding ELISA of stressed sample; F18; 25 °C 1000 lx 7 days
[22] = molecular target: antigen of the 'Antigen binding ELISA' (not given); assay: Antigen binding ELISA of stability sample; F18; 25 °C 2 months

ELISA (Antigen binding ELISA), report result [1]: 108%
ELISA (Antigen binding ELISA), report result [2]: 97%
ELISA (Antigen binding ELISA), report result [3]: 96.9%
ELISA (Antigen binding ELISA), report result [4]: 102%
ELISA (Antigen binding ELISA), report result [5]: 102%
ELISA (Antigen binding ELISA), report result [6]: 102%
ELISA (Antigen binding ELISA), report result [7]: 91.8%
ELISA (Antigen binding ELISA), report result [8]: 108%
ELISA (Antigen binding ELISA), report result [9]: 118%
ELISA (Antigen binding ELISA), report result [10]: 101%
ELISA (Antigen binding ELISA), report result [11]: 105%
ELISA (Antigen binding ELISA), report result [12]: 101%
ELISA (Antigen binding ELISA), report result [13]: 107%
ELISA (Antigen binding ELISA), report result [14]: 103%
ELISA (Antigen binding ELISA), report result [15]: 108%
ELISA (Antigen binding ELISA), report result [16]: 104%
ELISA (Antigen binding ELISA), report result [17]: 108%
ELISA (Antigen binding ELISA), report result [18]: 106%
ELISA (Antigen binding ELISA), report result [19]: 123%
ELISA (Antigen binding ELISA), report result [20]: 103%
ELISA (Antigen binding ELISA), report result [21]: 109%
ELISA (Antigen binding ELISA), report result [22]: 97.8%
Substance: BAN2401 (antibody)
